Assay results taken from patent publication US10287554B2, “Induced pluripotent stem cell model for Fabry disease and use thereof” (KOREA ADVANCED INSTITUTE OF SCIENCE AND TECHNOLOGY, priority 2013, dated 2019).

Columns and labels:
Assay type in all cases: cell-based, human
Conditions in all cases: 10 μg/ml for 5 days, compared with before treatment (FIG. 15)
[1] = system: vascular endothelial cells differentiated from FB-iPSCs; assay: Gb3 deposit by anti-Gb3 immunofluorescent staining in FB-iPSC originated vascular endothelial cells after Fabrazyme treatment
Method: (§1) Particularly, the FB-iPSCs prepared in Example <1-2> were treated with phosphate buffered saline (PBS) containing 4% formaldehyde, followed by fixing at room temperature for 15 minutes. The cells were treated with 0.1% triton X-100 to give permeability to the cell membrane. After the treatment, the cells were added with 4% normal donkey serum, followed by blocking at room temperature for 1 hour. The cells were treated with the primary antibody such as anti-OCT4 antibody (1:300, R&D Systems, USA), anti-NANOG antibody (1:300, Cell signaling technology, USA), anti-SSEA-4 antibody (1:300, R&D Systems, USA), anti-SOX2 rabbit antibody (BD Transduction Laboratories, USA), anti-Tra-1-81 antibody (1:300, Millipore, USA) or anti-Tra-1-60 antibody (1:300, Millipore, USA), followed by culture overnight at 4° C. Then, the cells were washed several times with PBST (PBS containing 0.1% Tween-20). The cells were treated with Alexa Fluor 488 or Alexa Fluor 594-conjugated secondary antibody (Invitrogen, USA), followed by further culture for 1 hour, leading to immunofluorescent staining of FB-iPSCs.
(§2) Particularly, the FB-iPSCs developed by the same manner as described in Example <1-2> were chopped in even sizes of 300˜500 μm in diameter by using a 10 μl syringe needle. […]

[2] = system: vascular smooth muscle cells differentiated from FB-iPSCs; assay: Gb3 deposit by anti-Gb3 immunofluorescent staining in FB-iPSC originated vascular smooth muscle cells after Fabrazyme treatment
Method: as §1, §2

[3] = system: FB-iPSCs (Fabry disease patient originated iPSCs); assay: Gb3 deposit by anti-Gb3 immunofluorescent staining in FB-iPSCs after Fabrazyme treatment
Method: as §1
To investigate whether or not the pharmacologic treatment during the FB-iPSC differentiation was effective in improving Fabry disease, the differentiation of vascular cells was induced from FB-iPSCs and then the cells were treated with Fabrazyme, the α-galactosidase recombinant protein. […]

B1: Fabrazyme: the α-galactosidase recombinant protein (GLA recombinant protein), belonging to agalsidase beta (protein, UniProt P06280 32-429, looked up)
Alpha-galactosidase A: LDNGLARTPTMGWLHWERFMCNLDCQEEPDSCISEKLFMEMAELMVSEGWKDAGYEYLCIDDCWMAPQRDSEGRLQADPQRFPHGIRQLANYVHSKGLKLGIYADVGNKTCAGFPGSFGYYDIDAQTFADWGVDLLKFDGCYCDSLENLADGYKHMSLALNRTGRSIVYSCEWPLYMWPFQKPNYTEIRQYCNHWRNFADIDDSWKSIKSILDWTSFNQERIVDVAGPGGWNDPDMLVIGNFGLSWNQQVTQMALWAIMAAPLFMSNDLRHISPQAKALLQDKDVIAINQDPLGKQGYQLRQGDNFEVWERPLSGLAWAVAMINRQEIGGPRSYTIAVASLGKGVACNPACFITQLLPVKRKLGFYEWTSRLRSHINPTGTVLLQLENTMQMSLKDLL
In the case of B1, the Gb3 deposit [1] is reported as “significantly reduced and hardly detected”, the Gb3 deposit [2] is reported as “significantly reduced and hardly detected” and the Gb3 deposit [3] is reported as “significantly reduced and hardly detected”.
